Like-named read-outs stand apart in the source and are kept apart here.
B1: JYK-01 ACP (polydiacetylene conjugate) (ssDNA)
DNA: TGAAGGTTCGTTGTTTCGGTGGGTGTAGACTCTTTAGAAGAGATACAGATTTTGGGAATG
modifications: 5' amine coupled to diacetylene monomer (TCDA) in polydiacetylene particle
B2: random sequence ACP (ssDNA)
DNA: TAAGTATATCGTGCCTGCGACTATGTTATGATGAGGCAGTCTTTAACCTGACTCGTAATA
modifications: 5' conjugated to polydiacetylene as JYK-01

What was measured:
[1] = molecular target: T1, EpCAM (epithelial cell adhesion molecule) (UniProt P16422 24-265); experiment: ACP fluorescence switching
T1 sequence: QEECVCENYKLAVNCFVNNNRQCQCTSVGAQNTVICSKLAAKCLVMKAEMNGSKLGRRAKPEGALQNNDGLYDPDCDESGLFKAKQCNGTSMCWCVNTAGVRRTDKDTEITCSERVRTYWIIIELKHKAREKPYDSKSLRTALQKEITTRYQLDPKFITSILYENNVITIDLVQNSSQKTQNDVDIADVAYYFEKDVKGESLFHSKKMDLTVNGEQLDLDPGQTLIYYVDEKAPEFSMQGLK

[2] = molecular target: T1, EpCAM (epithelial cell adhesion …); experiment: ACP fluorescence switching; remark: listed apart in the source

| Binder | binding result [1] | binding result [2] |
| --- | --- | --- |
| B1 | binds | – |
| B2 | – | no binding |

Reference: article PMC4277889
